Data as given in publication PMC5382265, “Macrocycle peptides delineate locked-open inhibition mechanism for microorganism phosphoglycerate mutases” (Nature Communications, 2017).

Target: C. elegans cofactor-independent phosphoglycerate mutase (iPGM) (C. elegans) (UniProt G5EFZ1)

Ce-2S (Ce-2 with Cys14Ser) (peptide)
IC50 of inhibition of PGM activity, enzyme-coupled bioluminescent assay: 10 nM
